# Test results published in PMC9352680, “A comprehensive thermodynamic model for RNA binding by the Saccharomyces cerevisiae Pumilio protein PUF4”.
# T1: PUF4 RNA-binding domain (Saccharomyces cerevisiae, UniProt P25339 537-888)
# T1 sequence: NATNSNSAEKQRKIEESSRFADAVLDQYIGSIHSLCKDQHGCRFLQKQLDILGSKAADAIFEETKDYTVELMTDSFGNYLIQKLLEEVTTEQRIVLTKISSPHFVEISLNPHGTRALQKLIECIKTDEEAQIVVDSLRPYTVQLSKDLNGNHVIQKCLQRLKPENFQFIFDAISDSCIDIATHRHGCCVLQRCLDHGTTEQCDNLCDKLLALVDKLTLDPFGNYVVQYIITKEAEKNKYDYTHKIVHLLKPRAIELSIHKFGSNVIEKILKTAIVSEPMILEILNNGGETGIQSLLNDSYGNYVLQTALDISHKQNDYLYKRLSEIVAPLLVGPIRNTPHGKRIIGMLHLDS
# Molecular target: T1, PUF4 RNA-binding domain
# Assay: Mg; RNA-MaP; 20 mM Na-HEPES pH 7.4, 30 mM KOAc, 0.75 mM MgCl2, 0.1% Tween-20, 5% glycerol, 0.1 mg/mL BSA, 2 mM DTT; 25 C; 0.0125-409.6 nM protein
# Conditions: tags: N-His6-TEV cleaved; C-SNAP kept, Cy3B-labelled; label: tethered on chip by stalled RNA polymerase
row,Binder,Kd [nM]
1,Ic_S2_P5E.1_K5.1_C5.1_H5.1_A5.1_[T6C]_[A7G]_F5.1_[T8C]_[T9C]_[A10T]_T5.1 (ssRNA) RNA: UUUGAUUAAUAUGAUAUCGUUCUUUCUUGUAUCGCCUUUCUUUCUCGAUAUCAUAUUAAUCUUU,463
2,UCUCUUUAUAUAUUCUCUCUU (ssRNA) [Ib_S1_P4E.1_K4.1_C4.1_H4.1_[G2A]_A4.1_F4.1_[A9C]_T4.1],857
3,UCUCUUUAUAUAUUUUCUCUU (ssRNA) [Ib_S1_P4E.1_K4.1_C4.1_H4.1_[G2A]_A4.1_F4.1_[A9T]_T4.1],413
4,Ic_S4_P3E.1_K3.1_C3.1_H3.1_A3.1_[T5G]_[A6C]_F3.1_[T7G]_[A8G]_T3.1 (ssRNA) RNA: UUUGACAACUGAUCGUUCUUUCUUGUAGCGGUUCUUUCUCGAUCAGUUGUCUUU,1270
5,Ic_S4_P3E.1_K3.1_C3.1_H3.1_A3.1_[T5G]_[A6C]_F3.1_[T7A]_[A8T]_T3.1 (ssRNA) RNA: UUUGACAACUGAUCGUUCUUUCUUGUAGCAUUUCUUUCUCGAUCAGUUGUCUUU,35.8
6,Ic_S4_P3E.1_K3.1_C3.1_H3.1_A3.1_[T5G]_[A6C]_F3.1_[A8C]_T3.1 (ssRNA) RNA: UUUGACAACUGAUCGUUCUUUCUUGUAGCUCUUCUUUCUCGAUCAGUUGUCUUU,192
7,Ic_S4_P3E.1_K3.1_C3.1_H3.1_A3.1_[T5G]_[A6C]_F3.1_[T7C]_T3.1 (ssRNA) RNA: UUUGACAACUGAUCGUUCUUUCUUGUAGCCAUUCUUUCUCGAUCAGUUGUCUUU,616
8,Ic_S4_P3E.1_K3.1_C3.1_H3.1_A3.1_[T5G]_[A6C]_F3.1_[T7A]_[A8C]_T3.1 (ssRNA) RNA: UUUGACAACUGAUCGUUCUUUCUUGUAGCACUUCUUUCUCGAUCAGUUGUCUUU,243
9,Ic_S4_P3E.1_K3.1_C3.1_H3.1_A3.1_[T5G]_[A6T]_F3.1_[T7A]_[A8C]_T3.1 (ssRNA) RNA: UUUGACAACUGAUCGUUCUUUCUUGUAGUACUUCUUUCUCGAUCAGUUGUCUUU,404
10,Ic_S4_P3E.1_K3.1_C3.1_H3.1_A3.1_[T5C]_[A6G]_F3.1_[T7G]_[A8C]_T3.1 (ssRNA) RNA: UUUGACAACUGAUCGUUCUUUCUUGUACGGCUUCUUUCUCGAUCAGUUGUCUUU,1030
11,Ic_S4_P3E.1_K3.1_C3.1_H3.1_A3.1_[T5G]_[A6C]_F3.1_[T7A]_[A8G]_T3.1 (ssRNA) RNA: UUUGACAACUGAUCGUUCUUUCUUGUAGCAGUUCUUUCUCGAUCAGUUGUCUUU,836
12,Ic_S4_P3E.1_K3.1_C3.1_H3.1_A3.1_[T5G]_[A6C]_F3.1_[T7C]_[A8C]_T3.1 (ssRNA) RNA: UUUGACAACUGAUCGUUCUUUCUUGUAGCCCUUCUUUCUCGAUCAGUUGUCUUU,648
13,Ic_S4_P3E.1_K3.1_C3.1_H3.1_A3.1_[T5G]_[A6T]_F3.1_[T7G]_[A8C]_T3.1 (ssRNA) RNA: UUUGACAACUGAUCGUUCUUUCUUGUAGUGCUUCUUUCUCGAUCAGUUGUCUUU,506
14,Ic_S4_P3E.1_K3.1_C3.1_H3.1_A3.1_[T5C]_[A6C]_F3.1_[T7A]_[A8C]_T3.1 (ssRNA) RNA: UUUGACAACUGAUCGUUCUUUCUUGUACCACUUCUUUCUCGAUCAGUUGUCUUU,79.7
15,Ic_S4_P3E.1_K3.1_C3.1_H3.1_A3.1_[T5C]_[A6G]_F3.1_[T7C]_[A8G]_T3.1 (ssRNA) RNA: UUUGACAACUGAUCGUUCUUUCUUGUACGCGUUCUUUCUCGAUCAGUUGUCUUU,908
16,Ic_S4_P3E.1_K3.1_C3.1_H3.1_A3.1_[T5C]_[A6G]_F3.1_[T7C]_T3.1 (ssRNA) RNA: UUUGACAACUGAUCGUUCUUUCUUGUACGCAUUCUUUCUCGAUCAGUUGUCUUU,444
17,Ic_S4_P3E.1_K3.1_C3.1_H3.1_A3.1_[T5G]_[A6C]_F3.1_[T7G]_[A8C]_T3.1 (ssRNA) RNA: UUUGACAACUGAUCGUUCUUUCUUGUAGCGCUUCUUUCUCGAUCAGUUGUCUUU,1710
18,Ic_S4_P3E.1_K3.1_C3.1_H3.1_A3.1_[T5C]_[A6C]_F3.1_[T7C]_[A8T]_T3.1 (ssRNA) RNA: UUUGACAACUGAUCGUUCUUUCUUGUACCCUUUCUUUCUCGAUCAGUUGUCUUU,14.2
19,Ic_S4_P3E.1_K3.1_C3.1_H3.1_A3.1_[T5C]_[A6C]_F3.1_[T7C]_T3.1 (ssRNA) RNA: UUUGACAACUGAUCGUUCUUUCUUGUACCCAUUCUUUCUCGAUCAGUUGUCUUU,487
20,Ic_S4_P3E.1_K3.1_C3.1_H3.1_A3.1_[T5G]_[A6T]_F3.1_[T7A]_[A8T]_T3.1 (ssRNA) RNA: UUUGACAACUGAUCGUUCUUUCUUGUAGUAUUUCUUUCUCGAUCAGUUGUCUUU,52.9
21,Ic_S4_P3E.1_K3.1_C3.1_H3.1_A3.1_[T5G]_[A6T]_F3.1_[T7G]_[A8T]_T3.1 (ssRNA) RNA: UUUGACAACUGAUCGUUCUUUCUUGUAGUGUUUCUUUCUCGAUCAGUUGUCUUU,100
22,UCUCUUUAUAUAUUAUCUCUU (ssRNA) [Ia_S1_P4E.1_K4.1_C4.1_H4.1_[G2A]_A4.1_F4.1_T4.1],14.1
23,UCUCUUUAUAUAUUGUCUCUU (ssRNA) [Ib_S1_P4E.1_K4.1_C4.1_H4.1_[G2A]_A4.1_F4.1_[A9G]_T4.1],334
24,UCUCUUUGCAUAUUGUCUCUU (ssRNA) [Ib_S1_P4E.1_K4.1_C4.1_H4.1_[T3C]_A4.1_F4.1_[A9G]_T4.1],1840
